Columns and labels:
GFP-SNX4 [1] = biological target: GFP-SNX4 (UniProt O95219); assay: co-IP; GBP-IP as above with lysates of HeLa cells transiently transfected with wild-type or mutant GFP-SNX4 and HA-SNX32 (legend of Figure 1H); values are the ratio of HA to GFP band intensity
GFP-SNX8 = biological target: T1, GFP-SNX8 (UniProt Q9Y5X2 1-465); assay: co-IP; GFP nanobody-based immunoprecipitation (GBP-IP): GST-GBP on glutathione sepharose beads incubated 2 hr at 4°C with extracts of HEK293T cells overexpressing GFP- and HA-tagged SNX proteins; washed with 1x PBS; immunoblot with anti-HA and anti-GFP; values are the ratio of HA to GFP band intensity; details: partners not purified
T1 construct: Sorting nexin 8 (SNX8); the plasmid is not described in the methods; source: HEK293T, transiently transfected, in lysate
T1 sequence (looked up): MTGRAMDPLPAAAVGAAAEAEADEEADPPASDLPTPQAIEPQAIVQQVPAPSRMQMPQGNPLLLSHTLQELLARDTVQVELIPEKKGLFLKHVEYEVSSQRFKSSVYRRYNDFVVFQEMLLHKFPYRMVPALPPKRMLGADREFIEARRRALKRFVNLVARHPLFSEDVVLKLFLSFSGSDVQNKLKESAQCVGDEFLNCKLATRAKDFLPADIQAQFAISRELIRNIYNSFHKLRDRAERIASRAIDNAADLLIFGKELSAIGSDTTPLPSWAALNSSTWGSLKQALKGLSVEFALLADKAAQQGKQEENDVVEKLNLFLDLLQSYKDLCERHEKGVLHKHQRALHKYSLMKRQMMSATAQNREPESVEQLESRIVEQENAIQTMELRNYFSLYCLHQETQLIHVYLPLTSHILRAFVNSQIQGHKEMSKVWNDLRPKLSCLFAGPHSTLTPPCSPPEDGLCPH

GFP-SNX1 = biological target: T2, GFP-SNX1 (UniProt Q13596-1 1-522); assay: as above; details: partners not purified
T2 construct: Sorting nexin 1 (SNX1); pEGFP C1 SNX1, gift of P. J. Cullen; also called GFP-SNX1 WT; pEGFP C1 SNX1

GFP-SNX32 = biological target: T3, GFP-SNX32 (UniProt Q86XE0-1 1-403); assay: as above; details: partners not purified
T3 construct: Sorting nexin 32 (SNX32, SNX6b); pEGFP C1 SNX32 FL, gift of P. J. Cullen; also called GFP-SNX32 WT; pEGFP C1 SNX32 FL; source: HEK293T or HeLa, transiently transfected, in lysate
T3 sequence (looked up): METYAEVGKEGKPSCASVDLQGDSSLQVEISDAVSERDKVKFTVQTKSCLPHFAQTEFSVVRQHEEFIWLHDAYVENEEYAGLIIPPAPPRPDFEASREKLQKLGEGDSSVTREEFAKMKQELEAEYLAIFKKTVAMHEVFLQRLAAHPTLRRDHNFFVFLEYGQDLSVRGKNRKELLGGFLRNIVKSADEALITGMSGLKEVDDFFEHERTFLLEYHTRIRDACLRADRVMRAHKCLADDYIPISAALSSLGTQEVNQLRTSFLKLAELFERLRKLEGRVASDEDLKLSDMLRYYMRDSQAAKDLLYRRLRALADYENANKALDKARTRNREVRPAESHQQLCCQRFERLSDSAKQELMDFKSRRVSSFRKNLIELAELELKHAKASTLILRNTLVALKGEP

GFP-SNX4, O95219 = biological target: T4, GFP-SNX4, O95219; assay: as above; details: remark: other sources report otherwise
T4 chain: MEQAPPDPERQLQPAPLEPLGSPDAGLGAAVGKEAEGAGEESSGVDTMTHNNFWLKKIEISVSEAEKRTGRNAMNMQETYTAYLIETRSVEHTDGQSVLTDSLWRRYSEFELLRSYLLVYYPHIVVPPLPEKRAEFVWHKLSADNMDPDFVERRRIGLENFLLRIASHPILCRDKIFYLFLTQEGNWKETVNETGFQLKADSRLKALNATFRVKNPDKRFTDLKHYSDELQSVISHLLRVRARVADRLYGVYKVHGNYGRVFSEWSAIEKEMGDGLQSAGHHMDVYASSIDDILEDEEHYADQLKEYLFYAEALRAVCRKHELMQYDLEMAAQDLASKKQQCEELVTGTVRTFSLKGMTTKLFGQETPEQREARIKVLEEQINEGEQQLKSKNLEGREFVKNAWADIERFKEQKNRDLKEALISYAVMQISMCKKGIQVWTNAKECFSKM

GFP-SNX4 [2] = biological target: T5, GFP-SNX4 (UniProt O95219-1 1-450); assay: co-IP; GBP-IP as above with lysates of HeLa cells transiently transfected with wild-type or mutant GFP-SNX4 and HA-SNX32 (legend of Figure 1H); values are the ratio of HA to GFP band intensity; details: partners not purified
T5 construct: Sorting nexin 4 (SNX4); pEGFP C1 SNX4, gift of P. J. Cullen; also called GFP-SNX4 WT; pEGFP C1 SNX4; source: HEK293T or HeLa, transiently transfected, in lysate
T5 sequence (looked up): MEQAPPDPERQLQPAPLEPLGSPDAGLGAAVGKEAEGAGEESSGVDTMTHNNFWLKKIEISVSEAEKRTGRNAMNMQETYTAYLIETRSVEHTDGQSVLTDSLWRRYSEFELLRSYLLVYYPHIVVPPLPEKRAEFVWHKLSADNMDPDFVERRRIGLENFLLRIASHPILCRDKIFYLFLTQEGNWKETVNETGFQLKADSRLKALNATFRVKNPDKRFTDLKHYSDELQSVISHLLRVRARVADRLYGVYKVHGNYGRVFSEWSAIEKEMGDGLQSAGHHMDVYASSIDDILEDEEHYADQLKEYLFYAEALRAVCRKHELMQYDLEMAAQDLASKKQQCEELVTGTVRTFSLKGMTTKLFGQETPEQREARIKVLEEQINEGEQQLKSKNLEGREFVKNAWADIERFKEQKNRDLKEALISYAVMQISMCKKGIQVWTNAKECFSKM

T2 sequence (Q13596 whole entry): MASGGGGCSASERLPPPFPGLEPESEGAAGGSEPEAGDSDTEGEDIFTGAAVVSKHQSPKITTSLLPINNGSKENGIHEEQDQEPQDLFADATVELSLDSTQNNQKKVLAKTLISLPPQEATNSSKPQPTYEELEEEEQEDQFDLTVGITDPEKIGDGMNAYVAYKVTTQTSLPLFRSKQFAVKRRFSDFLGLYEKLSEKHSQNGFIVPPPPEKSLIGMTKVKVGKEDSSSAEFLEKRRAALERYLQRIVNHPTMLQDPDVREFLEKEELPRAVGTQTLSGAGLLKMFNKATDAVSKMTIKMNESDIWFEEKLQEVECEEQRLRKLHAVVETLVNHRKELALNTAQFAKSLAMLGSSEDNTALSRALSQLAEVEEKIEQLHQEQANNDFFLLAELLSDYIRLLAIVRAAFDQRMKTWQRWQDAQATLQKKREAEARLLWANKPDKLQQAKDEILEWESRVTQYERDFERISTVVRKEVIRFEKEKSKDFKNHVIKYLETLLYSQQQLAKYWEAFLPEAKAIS

HA-SNX32 A226E (from UniProt Q86XE0-1 1-403) (natural protein)
ratio of HA to GFP band intensity (GFP-SNX4 [1]): 0.65

B1: HA-SNX32 full-length (FL) (natural protein, UniProt Q86XE0-1 1-403, looked up)
chain: METYAEVGKEGKPSCASVDLQGDSSLQVEISDAVSERDKVKFTVQTKSCLPHFAQTEFSVVRQHEEFIWLHDAYVENEEYAGLIIPPAPPRPDFEASREKLQKLGEGDSSVTREEFAKMKQELEAEYLAIFKKTVAMHEVFLQRLAAHPTLRRDHNFFVFLEYGQDLSVRGKNRKELLGGFLRNIVKSADEALITGMSGLKEVDDFFEHERTFLLEYHTRIRDACLRADRVMRAHKCLADDYIPISAALSSLGTQEVNQLRTSFLKLAELFERLRKLEGRVASDEDLKLSDMLRYYMRDSQAAKDLLYRRLRALADYENANKALDKARTRNREVRPAESHQQLCCQRFERLSDSAKQELMDFKSRRVSSFRKNLIELAELELKHAKASTLILRNTLVALKGEP
notes: Sorting nexin 32 (SNX32, SNX6b); pcDNA3 HA N(I)-SNX32 FL subcloned from pEGFP C1-SNX32FL; also called HA-SNX32FL; HA-SNX32 WT; source: HEK293T or HeLa, transiently transfected, in lysate
ratio of HA to GFP band intensity (GFP-SNX8): 0.62
ratio of HA to GFP band intensity (GFP-SNX1): 0.98
ratio of HA to GFP band intensity (GFP-SNX32): 0.85
ratio of HA to GFP band intensity (GFP-SNX4, O95219): 0.92

B2: HA-SNX32 Q259R (natural protein, UniProt Q86XE0-1 1-403, looked up)
chain: METYAEVGKEGKPSCASVDLQGDSSLQVEISDAVSERDKVKFTVQTKSCLPHFAQTEFSVVRQHEEFIWLHDAYVENEEYAGLIIPPAPPRPDFEASREKLQKLGEGDSSVTREEFAKMKQELEAEYLAIFKKTVAMHEVFLQRLAAHPTLRRDHNFFVFLEYGQDLSVRGKNRKELLGGFLRNIVKSADEALITGMSGLKEVDDFFEHERTFLLEYHTRIRDACLRADRVMRAHKCLADDYIPISAALSSLGTQEVNRLRTSFLKLAELFERLRKLEGRVASDEDLKLSDMLRYYMRDSQAAKDLLYRRLRALADYENANKALDKARTRNREVRPAESHQQLCCQRFERLSDSAKQELMDFKSRRVSSFRKNLIELAELELKHAKASTLILRNTLVALKGEP
notes: Sorting nexin 32 (SNX32) with a point mutation, made by site-directed mutagenesis of HA-tagged SNX32; also called pcDNA3 HA N(I)-SNX32 Q259R; source: HeLa, transiently transfected, in lysate
ratio of HA to GFP band intensity (GFP-SNX4 [2]): 0.75

B3: HA-SNX32 E256R (natural protein, UniProt Q86XE0-1 1-403, looked up)
chain: METYAEVGKEGKPSCASVDLQGDSSLQVEISDAVSERDKVKFTVQTKSCLPHFAQTEFSVVRQHEEFIWLHDAYVENEEYAGLIIPPAPPRPDFEASREKLQKLGEGDSSVTREEFAKMKQELEAEYLAIFKKTVAMHEVFLQRLAAHPTLRRDHNFFVFLEYGQDLSVRGKNRKELLGGFLRNIVKSADEALITGMSGLKEVDDFFEHERTFLLEYHTRIRDACLRADRVMRAHKCLADDYIPISAALSSLGTQRVNQLRTSFLKLAELFERLRKLEGRVASDEDLKLSDMLRYYMRDSQAAKDLLYRRLRALADYENANKALDKARTRNREVRPAESHQQLCCQRFERLSDSAKQELMDFKSRRVSSFRKNLIELAELELKHAKASTLILRNTLVALKGEP
notes: Sorting nexin 32 (SNX32) with a point mutation, made by site-directed mutagenesis of HA-tagged SNX32; also called pcDNA3 HA N(I)-SNX32E256R; source: HeLa, transiently transfected, in lysate
ratio of HA to GFP band intensity (GFP-SNX4 [2]): 0.66

B4: HA-SNX32 R366E (natural protein, UniProt Q86XE0-1 1-403, looked up)
chain: METYAEVGKEGKPSCASVDLQGDSSLQVEISDAVSERDKVKFTVQTKSCLPHFAQTEFSVVRQHEEFIWLHDAYVENEEYAGLIIPPAPPRPDFEASREKLQKLGEGDSSVTREEFAKMKQELEAEYLAIFKKTVAMHEVFLQRLAAHPTLRRDHNFFVFLEYGQDLSVRGKNRKELLGGFLRNIVKSADEALITGMSGLKEVDDFFEHERTFLLEYHTRIRDACLRADRVMRAHKCLADDYIPISAALSSLGTQEVNQLRTSFLKLAELFERLRKLEGRVASDEDLKLSDMLRYYMRDSQAAKDLLYRRLRALADYENANKALDKARTRNREVRPAESHQQLCCQRFERLSDSAKQELMDFKSREVSSFRKNLIELAELELKHAKASTLILRNTLVALKGEP
notes: Sorting nexin 32 (SNX32) with a point mutation, made by site-directed mutagenesis of HA-tagged SNX32; also called pcDNA3 HA N(I)-SNX32 R366E; source: HeLa, transiently transfected, in lysate
ratio of HA to GFP band intensity (GFP-SNX4 [2]): 0.49

B5: HA-SNX32 R220E (natural protein, UniProt Q86XE0-1 1-403, looked up)
chain: METYAEVGKEGKPSCASVDLQGDSSLQVEISDAVSERDKVKFTVQTKSCLPHFAQTEFSVVRQHEEFIWLHDAYVENEEYAGLIIPPAPPRPDFEASREKLQKLGEGDSSVTREEFAKMKQELEAEYLAIFKKTVAMHEVFLQRLAAHPTLRRDHNFFVFLEYGQDLSVRGKNRKELLGGFLRNIVKSADEALITGMSGLKEVDDFFEHERTFLLEYHTEIRDACLRADRVMRAHKCLADDYIPISAALSSLGTQEVNQLRTSFLKLAELFERLRKLEGRVASDEDLKLSDMLRYYMRDSQAAKDLLYRRLRALADYENANKALDKARTRNREVRPAESHQQLCCQRFERLSDSAKQELMDFKSRRVSSFRKNLIELAELELKHAKASTLILRNTLVALKGEP
notes: Sorting nexin 32 (SNX32) with a point mutation, made by site-directed mutagenesis of HA-tagged SNX32; also called pcDNA3 HA N(I)-SNX32 R220E; source: HeLa, transiently transfected, in lysate
ratio of HA to GFP band intensity (GFP-SNX4 [2]): 1.02

Reference: publication PMC10219652, “Insights into cargo sorting by SNX32 and its role in neurite outgrowth” (eLife, 2023)
